For assay [1], the target named is T1, GST-EphA2 (UniProt P29317 24-976).
T1 construct: EphA2; The methods name both pGEX6p-1-GST/His and pET28a as the vector; also called glutathione S-transferase (GST)-EphA2
Description: ELISA; 200 ng GST-EphA2 coated on 96-well plates overnight at 4 °C, blocked with 5% BSA in PBS; gradient concentrations of 6×His proteins, 2 h at room temperature; anti-His or anti-GST antibody, HRP secondary, absorbance at 450 nm. Particulars: both partners purified. On the technique in general: An ELISA detects its analyte on a solid surface through an enzyme-linked reagent.

Assay [2] addresses T1, GST-EphA2. Description: ELISA; as the ELISA on GST-EphA2-coated plates, gH/gL or gB incubated in the presence of IFITM1 (concentration of IFITM1 not stated). Particulars: both partners purified.

Several values for one entry are separate records, joined by “and”; a condition that tells them apart may be missing. Identical values can stand only once.

In general, EC50 refers to the concentration needed to bring the measured effect to its halfway point. A higher EC50 goes with a less potent agent.

B1: 6×His-gB (natural protein)
chain: AQTPEQPAPPATTVQPTATRQQTSFPFRVCELSSHGDLFRFSSDIQCPSFGTRENHTEGLLMVFKDNIIPYSFKVRSYTKIVTNILIYNGWYADSVTNRHEEKFSVDSYETDQMDTIYQCYNAVKMTKDGLTRVYVDRDGVNITVNLKPTGGLANGVRRYASQTELYDAPGWLIWTYRTRTTVNCLITDMMAKSNSPFDFFVTTTGQTVEMSPFYDGKNKETFHERADSFHVRTNYKIVDYDNRGTNPQGERRAFLDKGTYTLSWKLENRTAYCPLQHWQTFDSTIATETGKSIHFVTDEGTSSFVTNTTVGIELPDAFKCIEEQVNKTMHEKYEAVQDRYTKGQEAITYFITSGGLLLAWLPLTPRSLATVKNLTELTTPTSSPPSSPSPPAPSAARGSTPAAVLRRRRRDAGNATTPVPPTAPGKSLGTLNNPATVQIQFAYDSLRRQINRMLGDLARAWCLEQKRQNMVLRELTKINPTTVMSSIYGKAVAAKRLGDVISVSQCVPVNQATVTLRKSMRVPGSETMCYSRPLVSFSFINDTKTYEGQLGTDNEIFLTKKMTEVCQATSQYYFQSGNEIHVYNDYHHFKTIELDGIATLQTFISLNTSLIENIDFASLELYSRDEQRASNVFDLEGIFREYNFQAQNIAGLRKDLDNAVSNGRNQFVDGLGELMDSLGSVGQSITNLVSTVGGLFSSLVSGFISFFKNPFGGMLILVLVAGVVILVISLTRRTRQMSQQPVQMLYPGIDELAQQHASGEGPGINPISKTELQAIMLALHEQNQEQKRAAQRAAGPSVASRALQAARDRFPGLRRRRYHDPETAAALLGEAETEF
With B1, in the assay with GST-EphA2 [1], the EC50 is 41.7 nM and 39.6 nM. Besides, the “EC50 with IFITM1” value in the assay with GST-EphA2 [2] was 84.3 nM.

The record behind these values is publication PMC11087256, “Interferon-induced transmembrane protein-1 competitively blocks Ephrin receptor A2-mediated Epstein–Barr virus entry into epithelial cells” (Nature Microbiology, 2024).
